# Reference: publication PMC6096475, “Structure of the GH9 glucosidase/glucosaminidase from Vibrio cholerae” (Acta Crystallographica. Section F, Structural Biology …, 2018)
# System: Cc1cc(=O)oc2cc(O[C@@H]3O[C@H](CO)[C@@H](O)[C@H](O)[C@H]3O)ccc12
# Experiment: purified protein
# Conditions: 20 mM sodium phosphate pH 6.5, 1 µM enzyme, temperature not stated
substance,measurement,value
VC0615 (Vibrio cholerae O1 biovar El Tor str. N16961),Km,768 µM
same,kcat,0.0217 s⁻¹
